In publication PMC2749878 (Developmental cell, 2009):

B1: VPS25c, C-terminal winged helix (WH2) domain of human VPS25 (residues 102-176) (domain or fragment, UniProt Q9BRG1 102-176, looked up)
chain: RRPEEWGKLIYQWVSRSGQNNSVFTLYELTNGEDTEDEEFHGLDEATLLRALQALQQEHKAEIITVSDGRGVKFF

Legend:
crystal structure = target: the molecule itself; assay: crystal structure
[1] = target: T1, MBP-VPS20 α1 - α4 (residues 1-145) (human, UniProt Q96FZ7 1-145); assay: SPR
T1 sequence (looked up): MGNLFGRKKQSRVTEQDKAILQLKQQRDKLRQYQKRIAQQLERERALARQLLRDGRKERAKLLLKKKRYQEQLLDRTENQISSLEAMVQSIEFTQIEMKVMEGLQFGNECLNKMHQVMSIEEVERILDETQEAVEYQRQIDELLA

Binder	binding result (crystal structure)	Kd [1] [µM]
SRVTEQDKAILQLKQQRDKLRQYQKRIAQQLERERALA (domain or fragment, human, UniProt Q96FZ7 11-48, looked up) [VPS20 α1 (residues 11-48)]	binds	
B1		2.5
